The text below walks through data of publication PMC7042088.

The target in this assay is fluorescently labelled UDP-peptide bisubstrate conjugate. Nature of the assay: fluorescence polarisation; increasing concentrations of OGT titrated against a fixed concentration of the fluorescent probe; 0.1 M Tris/HCl pH 7.5, 0.15 M NaCl, 0.5 mM TCEP, 5% DMSO; 30 min in the dark. Background: Polarisation of emitted light reports the rotation of a fluorescent probe.

Residue numbers refer to the chain shown, from its start. In names and notes the source's numbering stands.

B1: O-GlcNAc transferase, truncated wild type (catalytic domain and 3.5 TPR repeats, residues 323-1044) (enzyme)
chain: CPTHADSLNNLANIKREQGNIEEAVRLYRKALEVFPEFAAAHSNLASVLQQQGKLQEALMHYKEAIRISPTFADAYSNMGNTLKEMQDVQGALQCYTRAIQINPAFADAHSNLASIHKDSGNIPEAIASYRTALKLKPDFPDAYCNLAHCLQIVCDWTDYDERMKKLVSIVADQLEKNRLPSVHPHHSMLYPLSHGFRKAIAERHGNLCLDKINVLHKPPYEHPKDLKLSDGRLRVGYVSSDFGNHPTSHLMQSIPGMHNPDKFEVFCYALSPDDGTNFRVKVMAEANHFIDLSQIPCNGKAADRIHQDGIHILVNMNGYTKGARNELFALRPAPIQAMWLGYPGTSGALFMDYIITDQETSPAEVAEQYSEKLAYMPHTFFIGDHANMFPHLKKKAVIDFKSNGHIYDNRIVLNGIDLKAFLDSLPDVKIVKMKCPDGGDNADSSNTALNMPVIPMNTIAEAVIEMINRGQIQITINGFSISNGLATTQINNKAATGEEVPRTIIVTTRSQYGLPEDAIVYCNFNQLYKIDPSTLQMWANILKRVPNSVLWLLRFPAVGEPNIQQYAQNMGLPQNRIIFSPVAPKEEHVRRGQLADVCLDTPLCNGHTTGMDVLWAGTPMVTMPGETLASRVAASQLTCLGCLELIAKNRQEYEDIAVKLGTDLEYLKKVRGKVWKQRISSPLFNTKQYTMELERLYLQMWEHYAAGNKPDHMIKPVEVTE
By Kd is commonly meant the concentration at which binding is half-saturated. For the molecule B1, the equilibrium dissociation constant (Kd) stood at 1.6 µM. In other words, the single-digit micromolar range.

B2: O-GlcNAc transferase N648Y, truncated (catalytic domain and 3.5 TPR repeats, residues 323-1044) (enzyme)
chain: B1 chain with N326Y
As for B2, the Kd amounted to 11 µM.
